Measurements reported in patent publication US7642244 (Hoffmann-La Roche, dated 2010).
Starred links: 1 amine or outer side, 2 acyl side, 3 side chain; linkers in the order of their positions; H or OH if unused. Non-standard residues stand in square brackets, D forms with d. No end group written: not given here. Pqa = 4-oxo-6-(1-piperazinyl)-3(4H)-quinazoline-acetic acid, O=C(Cn1cnc2ccc(N3CCN([*:1])CC3)cc2c1=O)[*:2]; Phe(3,4-Cl2) = N[C@@H](Cc1ccc(Cl)c(Cl)c1)C(=O)O; Phe(4-CF3) = N[C@@H](Cc1ccc(C(F)(F)F)cc1)C(=O)O; Phe(F5) = N[C@@H](Cc1c(F)c(F)c(F)c(F)c1F)C(=O)O; PEG30,000 SSA = (PEG-30,000)CH2CH2NHCOCH2CH2CO; Phe(3-F) = N[C@@H](Cc1cccc(F)c1)C(=O)O; NMeR = CN[C@@H](CCCNC(=N)N)C(=O)O

T1: human NPY2 receptor (human, UniProt P49146 1-381)
T1 sequence (looked up): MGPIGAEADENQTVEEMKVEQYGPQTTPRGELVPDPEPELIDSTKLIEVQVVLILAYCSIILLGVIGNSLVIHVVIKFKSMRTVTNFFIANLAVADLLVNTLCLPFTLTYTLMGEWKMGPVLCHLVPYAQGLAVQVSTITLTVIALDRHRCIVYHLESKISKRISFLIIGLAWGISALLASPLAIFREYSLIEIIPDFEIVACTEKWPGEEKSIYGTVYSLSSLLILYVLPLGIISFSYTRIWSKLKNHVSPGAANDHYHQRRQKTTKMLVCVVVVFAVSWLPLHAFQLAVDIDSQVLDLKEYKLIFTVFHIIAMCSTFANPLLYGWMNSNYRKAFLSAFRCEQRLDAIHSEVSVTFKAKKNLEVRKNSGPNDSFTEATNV

T2: Y5R
T2 sequence (Q15761 whole entry, species assumed, looked up): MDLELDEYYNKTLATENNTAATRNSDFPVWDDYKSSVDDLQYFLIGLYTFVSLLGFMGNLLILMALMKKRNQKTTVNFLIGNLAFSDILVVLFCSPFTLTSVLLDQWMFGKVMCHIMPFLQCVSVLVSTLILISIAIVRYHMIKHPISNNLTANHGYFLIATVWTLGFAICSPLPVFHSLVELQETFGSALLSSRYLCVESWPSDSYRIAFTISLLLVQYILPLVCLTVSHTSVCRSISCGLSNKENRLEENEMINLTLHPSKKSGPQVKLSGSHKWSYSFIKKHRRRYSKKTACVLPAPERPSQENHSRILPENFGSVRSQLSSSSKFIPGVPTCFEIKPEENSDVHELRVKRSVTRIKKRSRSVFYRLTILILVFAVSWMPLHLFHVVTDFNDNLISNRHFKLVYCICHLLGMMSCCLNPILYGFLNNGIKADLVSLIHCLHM


Legend:
Experiment in all cases: cell-based or functional assay
human NPY2 receptor = target: T1, human NPY2 receptor
Y1R = target: Y1R
Y1R, sequence (P25929 whole entry): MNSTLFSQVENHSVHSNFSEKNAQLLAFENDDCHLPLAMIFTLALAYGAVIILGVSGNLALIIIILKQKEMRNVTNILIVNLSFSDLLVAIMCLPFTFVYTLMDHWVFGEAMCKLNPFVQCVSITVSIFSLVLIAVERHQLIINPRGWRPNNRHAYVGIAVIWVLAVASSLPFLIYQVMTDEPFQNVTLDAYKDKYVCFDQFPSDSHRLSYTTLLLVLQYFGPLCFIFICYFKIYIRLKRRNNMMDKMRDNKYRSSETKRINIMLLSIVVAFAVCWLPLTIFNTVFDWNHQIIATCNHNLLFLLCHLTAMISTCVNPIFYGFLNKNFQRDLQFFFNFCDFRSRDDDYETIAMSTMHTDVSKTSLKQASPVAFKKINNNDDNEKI

Y4R = target: Y4R
Y5R = target: T2, Y5R

Binder	Y2R EC50 (nM) FLIPR (human NPY2 receptor) [nM]	Y2R EC50 (nM) cAMP (human NPY2 receptor) [nM]	Y1R EC50 (nM) FLIPR (Y1R) [nM]	Y4R EC50 (nM) FLIPR (Y4R) [nM]	Y5R EC50 (nM) FLIPR (Y5R) [nM]
H-IK[Pqa]RHYLNLVTRQ[NMeR]F-NH2 [H-Ile-Lys-Pqa-Arg-His-Tyr-Leu-Asn-Leu-Val-Thr-Arg-Gln-(NMe)Arg-Phe-NH2]	1.54	0.69	–	–	–
IKXRHYLNWVTRQRY (HELM PEPTIDE1{[O=C(c1ccccc1)[*:2]].I.K.[O=C(Cn1cnc2ccc(N3CCN([*:1])CC3)cc2c1=O)[*:2]].R.H.Y.L.N.W.V.T.R.Q.[meR].Y.[am]}$$$$V2.0; SMILES CC[C@H](C)[C@H](NC(=O)c1ccccc1)C(=O)N[C@@H](CCCCN)C(=O)N1CCN(c2ccc3ncn(CC(=O)N[C@@H](CCCNC(=N)N)C(=O)N[C@@H](Cc4c[nH]cn4)C(=O)N[C@@H](Cc4ccc(O)cc4)C(=O)N[C@@H](CC(C)C)C(=O)N[C@@H](CC(N)=O)C(=O)N[C@@H](Cc4c[nH]c5ccccc45)C(=O)N[C@H](C(=O)N[C@H](C(=O)N[C@@H](CCCNC(=N)N)C(=O)N[C@@H](CCC(N)=O)C(=O)N(C)[C@@H](CCCNC(=N)N)C(=O)N[C@@H](Cc4ccc(O)cc4)C(N)=O)[C@@H](C)O)C(C)C)c(=O)c3c2)CC1) [Benzoyl-Ile-Lys-Pqa-Arg-His-Tyr-Leu-Asn-Trp-Val-Thr-Arg-Gln-(NMe)Arg-Tyr-NH2]	0.79	0.66	> 5000	> 5000	> 5000
H-IK[Pqa]RHYLNLVTRQ[NMeR][Phe(3,4-Cl2)]-NH2 [H-Ile-Lys-Pqa-Arg-His-Tyr-Leu-Asn-Leu-Val-Thr-Arg-Gln-(NMe)Arg-3,4-dichloro-Phe-NH2]	4.03	1.47	–	–	–
IXXRHYLNWVTRQRY ((PEG-30,000)CH(CH3)CH2CO (PEG30,000 beta-SBA) on the N-terminal Ile; Nle as second residue; Pqa as third residue; (NMe)Arg as penultimate residue; C-terminal amide (NH2)) [((PEG-30,000)CH(CH3)CH2CO)Ile-Nle-Pqa-Arg-His-Tyr-Leu-Asn-Trp-Val-Thr-Arg-Gln-(NMe)Arg-Tyr-NH2]	–	–	> 5000	> 5000	> 5000
IXXRHYLNWVTRQRY (Nle as second residue; Pqa as third residue; (NMe)Arg as penultimate residue; C-terminal amide (NH2)) [H-Ile-Nle-Pqa-Arg-His-Tyr-Leu-Asn-Trp-Val-Thr-Arg-Gln-(NMe)Arg-Tyr-NH2]	8.1	0.108	> 5000	> 5000	> 5000
IK[Pqa]RHYLNWVTRQ[NMeR]Y-NH2 (also: mixture: PEG30,000 SPA on N-terminal Ile or on Lys ε-amino (majority on Lys))	–	–	> 5000	> 5000	> 5000
H-IK[Pqa]RHYLNLVTRQ[NMeR][Phe(4-CF3)]-NH2 [H-Ile-Lys-Pqa-Arg-His-Tyr-Leu-Asn-Leu-Val-Thr-Arg-Gln-(NMe)Arg-4-trifluoro methyl-Phe-NH2]	6.13	3.55	–	–	–
IKXRHYLNLVTRQRX (Pqa as third residue; (NMe)Arg as penultimate residue; Cha (Cyclohexyl Alanine) as C-terminal residue; C-terminal amide (NH2)) [H-Ile-Lys-Pqa-Arg-His-Tyr-Leu-Asn-Leu-Val-Thr-Arg-Gln-(NMe)Arg-Cha-NH2]	0.498	0.5	> 5000	–	352
IKXRHYLNWVTRQRY (HELM PEPTIDE1{[CCCCC(=O)[*:2]].I.K.[O=C(Cn1cnc2ccc(N3CCN([*:1])CC3)cc2c1=O)[*:2]].R.H.Y.L.N.W.V.T.R.Q.[meR].Y.[am]}$$$$V2.0; SMILES CCCCC(=O)N[C@H](C(=O)N[C@@H](CCCCN)C(=O)N1CCN(c2ccc3ncn(CC(=O)N[C@@H](CCCNC(=N)N)C(=O)N[C@@H](Cc4c[nH]cn4)C(=O)N[C@@H](Cc4ccc(O)cc4)C(=O)N[C@@H](CC(C)C)C(=O)N[C@@H](CC(N)=O)C(=O)N[C@@H](Cc4c[nH]c5ccccc45)C(=O)N[C@H](C(=O)N[C@H](C(=O)N[C@@H](CCCNC(=N)N)C(=O)N[C@@H](CCC(N)=O)C(=O)N(C)[C@@H](CCCNC(=N)N)C(=O)N[C@@H](Cc4ccc(O)cc4)C(N)=O)[C@@H](C)O)C(C)C)c(=O)c3c2)CC1)[C@@H](C)CC) [Pentoyl-Ile-Lys-Pqa-Arg-His-Tyr-Leu-Asn-Trp-Val-Thr-Arg-Gln-(NMe)Arg-Tyr-NH2]	0.873	0.51	> 5000	> 5000	> 5000
H-IK[Pqa]RHYLNLVTRQ[NMeR][Phe(F5)]-NH2 [H-Ile-Lys-Pqa-Arg-His-Tyr-Leu-Asn-Leu-Val-Thr-Arg-Gln-(NMe)Arg-2,3,4,5,6 Pentafluoro-Phe-NH2]	11.9	2.5	–	–	–
IK[Pqa]RHYLNWVTRQ[NMeR]Y-NH2 (also: mixture: PEG40,000 BTC on N-terminal Ile or on Lys ε-amino)	–	–	> 5000	> 5000	> 5000
IKXRHYLNWVTRQRY (HELM PEPTIDE1{[ac].I.K.[O=C(Cn1cnc2ccc(N3CCN([*:1])CC3)cc2c1=O)[*:2]].R.H.Y.L.N.W.V.T.R.Q.[meR].[O=C([C@H](Cc1c(F)cc(O)cc1F)N[*:1])[*:2]].[am]}$$$$V2.0; SMILES CC[C@H](C)[C@H](NC(C)=O)C(=O)N[C@@H](CCCCN)C(=O)N1CCN(c2ccc3ncn(CC(=O)N[C@@H](CCCNC(=N)N)C(=O)N[C@@H](Cc4c[nH]cn4)C(=O)N[C@@H](Cc4ccc(O)cc4)C(=O)N[C@@H](CC(C)C)C(=O)N[C@@H](CC(N)=O)C(=O)N[C@@H](Cc4c[nH]c5ccccc45)C(=O)N[C@H](C(=O)N[C@H](C(=O)N[C@@H](CCCNC(=N)N)C(=O)N[C@@H](CCC(N)=O)C(=O)N(C)[C@@H](CCCNC(=N)N)C(=O)N[C@@H](Cc4c(F)cc(O)cc4F)C(N)=O)[C@@H](C)O)C(C)C)c(=O)c3c2)CC1) [Ac-Ile-Lys-Pqa-Arg-His-Tyr-Leu-Asn-Trp-Val-Thr-Arg-Gln-(NMe)Arg-2,6-F2-Tyr-NH2]	1.44	0.07	> 5000	> 5000	5810
H-IK[Pqa]RHYLNWVTRQ[NMeR]Y-NH2 [H-Ile-Lys-Pqa-Arg-His-Tyr-Leu-Asn-Trp-Val-Thr-Arg-Gln-(NMe)Arg-Tyr-NH2]	0.44	0.25	298	> 5000	> 5000
IKXRHYLNLVTRQRF (Pqa as third residue; (NMe)Arg as penultimate residue; 4 Methoxy-Phe as C-terminal residue; C-terminal amide (NH2)) [H-Ile-Lys-Pqa-Arg-His-Tyr-Leu-Asn-Leu-Val-Thr-Arg-Gln-(NMe)Arg-4 Methoxy-Phe-NH2]	0.74	0.55	–	–	–
IXXRHYLNWVTRQRY (PEG30,000-SSA (PEG-CH2CH2NHCOCH2CH2CO-) on the N-terminal Ile; Nle as second residue; Pqa as third residue; (NMe)Arg as penultimate residue; C-terminal amide (NH2)) [((PEC30,000)CH2Cl2NHCOCH2CH2CO)Ile-Nle-Pqa-Arg-His-Tyr-Leu-Asn-Trp-Val-Thr-Arg-Gln-(NMe)Arg-Tyr-NH2]	–	–	> 5000	> 5000	> 5000
H-IK[Pqa]RHYLNLVTRQ[NMeR][Phe(3-F)]-NH2 [H-Ile-Lys-Pqa-Arg-His-Tyr-Leu-Asn-Leu-Val-Thr-Arg-Gln-(NMe)Arg-3Fluoro-Phe-NH2]	0.635	0.75	–	–	–
IKXRHYLNLVTRQRX (Pqa as third residue; (NMe)Arg as penultimate residue; 2-Nal (2-Naphthyl Alanine) as C-terminal residue; C-terminal amide (NH2)) [H-Ile-Lys-Pqa-Arg-His-Tyr-Leu-Asn-Leu-Val-Thr-Arg-Gln-(NMe)Arg-2-Nal-NH2]	4.11	2.4	–	–	–
IKXRHYLNWVTRQRY (HELM PEPTIDE1{[O=C(CC1CCCCC1)[*:2]].I.K.[O=C(Cn1cnc2ccc(N3CCN([*:1])CC3)cc2c1=O)[*:2]].R.H.Y.L.N.W.V.T.R.Q.[meR].Y.[am]}$$$$V2.0; SMILES CC[C@H](C)[C@H](NC(=O)CC1CCCCC1)C(=O)N[C@@H](CCCCN)C(=O)N1CCN(c2ccc3ncn(CC(=O)N[C@@H](CCCNC(=N)N)C(=O)N[C@@H](Cc4c[nH]cn4)C(=O)N[C@@H](Cc4ccc(O)cc4)C(=O)N[C@@H](CC(C)C)C(=O)N[C@@H](CC(N)=O)C(=O)N[C@@H](Cc4c[nH]c5ccccc45)C(=O)N[C@H](C(=O)N[C@H](C(=O)N[C@@H](CCCNC(=N)N)C(=O)N[C@@H](CCC(N)=O)C(=O)N(C)[C@@H](CCCNC(=N)N)C(=O)N[C@@H](Cc4ccc(O)cc4)C(N)=O)[C@@H](C)O)C(C)C)c(=O)c3c2)CC1) [Cyclohexylacetyl-Ile-Lys-Pqa-Arg-His-Tyr-Leu-Asn-Trp-Val-Thr-Arg-Gln-(NMe)Arg-Tyr-NH2]	1.67	1.37	> 5000	> 5000	> 5000
IKXRHYLNLVTRQRX (Pqa as third residue; (NMe)Arg as penultimate residue; 1-Nal (1-Naphthyl Alanine) as C-terminal residue; C-terminal amide (NH2)) [H-Ile-Lys-Pqa-Arg-His-Tyr-Leu-Asn-Leu-Val-Thr-Arg-Gln-(NMe)Arg-1-Nal-NH2]	2.73	1.14	–	–	–
IKXRHYLNWVTRQRY (HELM PEPTIDE1{[CC(C)(C)C(=O)[*:2]].I.K.[O=C(Cn1cnc2ccc(N3CCN([*:1])CC3)cc2c1=O)[*:2]].R.H.Y.L.N.W.V.T.R.Q.[meR].Y.[am]}$$$$V2.0; SMILES CC[C@H](C)[C@H](NC(=O)C(C)(C)C)C(=O)N[C@@H](CCCCN)C(=O)N1CCN(c2ccc3ncn(CC(=O)N[C@@H](CCCNC(=N)N)C(=O)N[C@@H](Cc4c[nH]cn4)C(=O)N[C@@H](Cc4ccc(O)cc4)C(=O)N[C@@H](CC(C)C)C(=O)N[C@@H](CC(N)=O)C(=O)N[C@@H](Cc4c[nH]c5ccccc45)C(=O)N[C@H](C(=O)N[C@H](C(=O)N[C@@H](CCCNC(=N)N)C(=O)N[C@@H](CCC(N)=O)C(=O)N(C)[C@@H](CCCNC(=N)N)C(=O)N[C@@H](Cc4ccc(O)cc4)C(N)=O)[C@@H](C)O)C(C)C)c(=O)c3c2)CC1) [Trimethylacetyl-Ile-Lys-Pqa-Arg-His-Tyr-Leu-Asn-Trp-Val-Thr-Arg-Gln-(NMe)Arg-Tyr-NH2]	1.1	0.26	> 5000	> 5000	> 5000
H-IK(PEG30,000 SSA)[Pqa]RHYLNWVTRQ[NMeR]Y-NH2	–	–	> 5000	> 5000	> 5000
